Results as given in US20170137467A1 (CHROMOTEK, published 2017).
Residue numbers refer to the chain shown, from its start. Values belong to the binder of their own block, whether it stands above or below them. Square brackets hold non-standard residues; d marks the D form. GABA = NCCCC(=O)O

Key:
Experiment in all cases: positional peptide library pulldown on immobilised Nb, LC-MS of supernatant; signal ratio to control GFP-Nb (1 = not captured, near 0 = captured)
BC2T K4T = target: T1, BC2T K4T
T1 construct: positional scanning library member
T1 peptide: Ac-PDRTAAVSHWQQ-NH2
Outline: (§1)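 Unbound peptide left in supernatant after 1 h pulldown in PBS/0.01% CHAPS measured by reversed-phase LC-MS (8–30% eluent B gradient, 20 min).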

BC2T K4H = target: T2, BC2T K4H
T2 construct: positional scanning library member
T2 peptide: Ac-PDRHAAVSHWQQ-NH2
Outline: as §1

BC2T P1K = target: T3, BC2T P1K
T3 construct: positional scanning library member
T3 peptide: Ac-KDRKAAVSHWQQ-NH2
Outline: as §1

BC2T R3T = target: T4, BC2T R3T
T4 construct: positional scanning library member
T4 peptide: Ac-PDTKAAVSHWQQ-NH2
Outline: as §1

BC2T A5D = target: T5, BC2T A5D
T5 construct: positional scanning library member
T5 peptide: Ac-PDRKDAVSHWQQ-NH2
Outline: as §1

BC2T A6Q = target: T6, BC2T A6Q
T6 construct: positional scanning library member
T6 peptide: Ac-PDRKAQVSHWQQ-NH2
Outline: as §1

BC2T P1E = target: T7, BC2T P1E
T7 construct: positional scanning library member
T7 peptide: Ac-EDRKAAVSHWQQ-NH2
Outline: as §1

BC2T K4D = target: T8, BC2T K4D
T8 construct: positional scanning library member
T8 peptide: Ac-PDRDAAVSHWQQ-NH2
Outline: as §1

BC2T A6F = target: T9, BC2T A6F
T9 construct: positional scanning library member
T9 peptide: Ac-PDRKAFVSHWQQ-NH2
Outline: as §1

BC2T A5E = target: T10, BC2T A5E
T10 construct: positional scanning library member
T10 peptide: Ac-PDRKEAVSHWQQ-NH2
Outline: as §1

BC2T D2P = target: T11, BC2T D2P
T11 construct: positional scanning library member
T11 peptide: Ac-PPRKAAVSHWQQ-NH2
Outline: as §1

BC2T A6D = target: T12, BC2T A6D
T12 construct: positional scanning library member
T12 peptide: Ac-PDRKADVSHWQQ-NH2
Outline: as §1

BC2T A6H = target: T13, BC2T A6H
T13 construct: positional scanning library member
T13 peptide: Ac-PDRKAHVSHWQQ-NH2
Outline: as §1

BC2T A6Y = target: T14, BC2T A6Y
T14 construct: positional scanning library member
T14 peptide: Ac-PDRKAYVSHWQQ-NH2
Outline: as §1

BC2T P1S = target: T15, BC2T P1S
T15 construct: positional scanning library member
T15 peptide: Ac-SDRKAAVSHWQQ-NH2
Outline: as §1

BC2T V7C(Abu) = target: T16, BC2T V7C(Abu) (also: Abu described as gamma-amino butyric acid)
T16 construct: positional scanning library member
T16 peptide: Ac-PDRKAA[GABA]SHWQQ-NH2
Outline: as §1

BC2T A6N = target: T17, BC2T A6N
T17 construct: positional scanning library member
T17 peptide: Ac-PDRKANVSHWQQ-NH2
Outline: as §1

BC2T A5R = target: T18, BC2T A5R
T18 construct: positional scanning library member
T18 peptide: Ac-PDRKRAVSHWQQ-NH2
Outline: as §1

[1] = target: T19, BC2T peptide PDRKAAVSHWQQ (human)
T19 construct: aa 16-27 of beta-catenin; also called BC2-tag; BC2-peptide
T19 peptide: Ac-PDRKAAVSHWQQ-NH2
Outline: as §1

BC2T Q12E = target: T20, BC2T Q12E
T20 construct: positional scanning library member
T20 peptide: Ac-PDRKAAVSHWQE-NH2
Outline: as §1

BC2T Q11P = target: T21, BC2T Q11P
T21 construct: positional scanning library member
T21 peptide: Ac-PDRKAAVSHWPQ-NH2
Outline: as §1

ratio (BC2T K4T): 0.5 | ratio (BC2T K4H): 0.2 | ratio (BC2T P1K): 0.3 | ratio (BC2T R3T): 0.6 | ratio (BC2T A5D): 0.9 | ratio (BC2T A6Q): 1 | ratio (BC2T P1E): 0.8 | ratio (BC2T K4D): 1 | ratio (BC2T A6F): 1 | ratio (BC2T A5E): 0.8 | ratio (BC2T D2P): 0.8 | ratio (BC2T A6D): 1 | ratio (BC2T A6H): 1 | ratio (BC2T A6Y): 1 | ratio (BC2T P1S): 0.4 | ratio (BC2T V7C(Abu)): 0.3 | ratio (BC2T A6N): 1 | ratio (BC2T A5R): 0
B1: BC2-NbR106E (VHH)
VHH: QVQLVESGGGLVQPGGSLTLSCTASGFTLDHYDIGWFRQAPGKEREGVSCINNSDDDTYYADSVKGRFTIFMDNAKDTVYLQMNSLKPEDTAIYYCAEARGCKRGEYEYDFWGQGTQVTVSS
notes: headlock mutant of BC2-Nb; immobilised on beads in this assay

B2: BC2 nanobody (VHH)
VHH: B1 VHH with E106R
notes: immobilised on beads in this assay; also called BC2-Nb; BC2 nanotrap (immobilised)
ratio [1]: 0.1 | ratio (BC2T Q12E): 0.4

ratio (BC2T Q11P): 0.9
B3: BC2-NbR106S (VHH)
VHH: B1 VHH with E106S
notes: as for B1
